Source: publication PMC8660055

Tests used:
[1] = target: PDCoV S1 protein (porcine deltacoronavirus (PDCoV)); assay: ELISA
[2] = target: PDCoV S2 protein (porcine deltacoronavirus (PDCoV)); assay: ELISA

Substance: Griffithsin (from UniProt P84801 1-121) (natural protein)
- OD450 reached in ELISA [1]: 3.68 OD450
- OD450 reached in ELISA [2]: 1.93 OD450
